The record followed here is paper PMC10372576 (Proceedings of the National Academy of Sciences of the …, 2023).

The assay deals with T1, S.c. Mon1–Ccz1 complex (wild type) (Saccharomyces cerevisiae, UniProt P53129;P38273).
T1 sequence 1: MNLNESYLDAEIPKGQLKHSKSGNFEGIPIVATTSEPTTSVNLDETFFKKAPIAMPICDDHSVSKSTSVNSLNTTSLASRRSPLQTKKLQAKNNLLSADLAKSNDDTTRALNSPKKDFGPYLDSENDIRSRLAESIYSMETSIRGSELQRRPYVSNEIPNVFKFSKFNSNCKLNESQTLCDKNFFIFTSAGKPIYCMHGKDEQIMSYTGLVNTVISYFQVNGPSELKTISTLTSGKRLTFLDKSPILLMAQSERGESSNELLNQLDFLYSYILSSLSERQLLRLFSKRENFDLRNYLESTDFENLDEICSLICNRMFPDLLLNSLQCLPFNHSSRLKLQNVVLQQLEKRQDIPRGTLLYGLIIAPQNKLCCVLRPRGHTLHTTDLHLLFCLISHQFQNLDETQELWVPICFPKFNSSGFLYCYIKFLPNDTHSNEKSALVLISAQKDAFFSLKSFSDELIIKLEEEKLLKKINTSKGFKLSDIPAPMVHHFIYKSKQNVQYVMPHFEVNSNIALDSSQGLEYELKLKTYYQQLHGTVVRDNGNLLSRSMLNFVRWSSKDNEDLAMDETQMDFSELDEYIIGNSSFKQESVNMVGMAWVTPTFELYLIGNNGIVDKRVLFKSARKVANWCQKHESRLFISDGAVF
T1 sequence 2: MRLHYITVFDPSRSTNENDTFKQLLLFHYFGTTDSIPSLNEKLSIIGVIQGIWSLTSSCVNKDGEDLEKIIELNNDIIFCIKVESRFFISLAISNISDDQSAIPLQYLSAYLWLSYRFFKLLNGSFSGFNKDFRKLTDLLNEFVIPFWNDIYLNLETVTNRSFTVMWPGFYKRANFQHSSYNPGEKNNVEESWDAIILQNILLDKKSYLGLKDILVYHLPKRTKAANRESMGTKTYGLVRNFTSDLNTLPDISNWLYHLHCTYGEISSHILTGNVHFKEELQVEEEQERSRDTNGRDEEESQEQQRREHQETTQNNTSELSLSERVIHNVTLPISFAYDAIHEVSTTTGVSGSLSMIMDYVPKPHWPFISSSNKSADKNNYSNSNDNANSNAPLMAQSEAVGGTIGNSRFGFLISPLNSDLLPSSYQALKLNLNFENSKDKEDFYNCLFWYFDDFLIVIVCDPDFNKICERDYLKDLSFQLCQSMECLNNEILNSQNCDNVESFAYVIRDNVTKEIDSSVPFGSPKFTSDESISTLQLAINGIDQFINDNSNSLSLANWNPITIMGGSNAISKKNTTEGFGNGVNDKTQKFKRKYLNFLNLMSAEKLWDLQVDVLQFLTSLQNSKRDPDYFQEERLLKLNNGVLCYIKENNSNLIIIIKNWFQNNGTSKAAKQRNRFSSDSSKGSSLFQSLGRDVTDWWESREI
As to the kind of experiment: pull-down.

B1: GST-Ypt10 (natural protein)
chain: MEATIKVVLLGDSSVGKTSIVTRLKSGKFLAKHAATIGAAFITKTIEVPSNDSSTEKRIHMEIWDTAGQERYKSLVPMYYRDANIALIVFELGDVSSLQCAKTWFQDLQDRAQGTQVIIVGNKYDLVCEEHSGEVTIPAELQGLPYVAVSAKTGYNFDTLNKIIISLVPESQFKTLSKNNEQGNILEINKKKSGSGCIC
As to B1, the binding result is recorded as “binds”.
